Reference: patent US20230065306A1 (INHIBRX, published 2023)
Where two headings read alike, the source gives them in different places. Values belong to the binder of their own block, whether it stands above or below them.

How the values were obtained:
[1] = target: T1, human CD123 (full-length, on cells) (human, UniProt P26951 19-378); assay: flow cytometry, HEK 293 cells transfected with full-length CD123 (CD123-FL); Median RL-1H
T1 construct: also called CD123-FL; interleukin-3 receptor alpha chain
Procedure: (§1) Binding of sdAbs to human CD123 was assessed by flow cytometry. […] HEK 293 cells were transiently transfected with a plasmid encoding full-length CD123 (UniProt Accession No. P26951-1; mature form, SEQ ID NO: 1) and used as the positive cell line in FIGS. 2A to 2M, and untransfected HEK 293 cells were used as CD123-negative cells. In FIG. 2N, Molm-13 cells, which express CD123, were used as the positive cell line. Each cell type was plated at 30,000 cells/well in FACS buffer (PBS 1% BSA, 0.1% NaN₃ pH 7.4) on a 96-well round-bottom plate. The sdAbs were diluted in FACS buffer in a 3-fold, 11 point serial dilution. The sdAb dilutions were added to the plated cells, and assay plates were incubated for 30 minutes at 4° C. After washing twice in 150 μL of FACS buffer, cells in each well were resuspended in 100 μL of 1:2000 Alexa Fluor 647-conjugated Anti-Human IgG secondary diluted in FACS buffer and incubated at 4° C. for 30 minutes. The cells were washed twice more, then bound antibody was detected by flow cytometry.
(§2) Flow cytometric analysis was performed on an Intellicyte iQue Plus and fluorescence was plotted as median fluorescence intensity. The apparent affinity (Kd, nM) was determined using one site binding non-linear regression in PRISM graph software.
Target sequence in this assay (P26951 19-378): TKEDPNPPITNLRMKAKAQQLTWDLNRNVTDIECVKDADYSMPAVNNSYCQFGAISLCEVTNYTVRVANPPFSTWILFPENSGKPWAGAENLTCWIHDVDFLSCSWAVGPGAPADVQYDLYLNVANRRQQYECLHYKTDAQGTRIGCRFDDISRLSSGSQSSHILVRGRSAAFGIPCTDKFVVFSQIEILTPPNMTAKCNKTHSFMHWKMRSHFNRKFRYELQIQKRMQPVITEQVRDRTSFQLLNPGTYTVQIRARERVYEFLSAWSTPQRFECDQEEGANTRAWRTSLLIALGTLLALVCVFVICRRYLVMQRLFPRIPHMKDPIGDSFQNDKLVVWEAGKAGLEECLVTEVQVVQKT

CD123-his [2] = target: T2, CD123-his; assay: BLI, CD123-his on Ni-NTA sensors preloaded with hz1B11v28, second sdAb 100 nM
T2 construct: also called histidine tagged human CD123; His-tagged CD123 ECD
T2 extracellular domain with C-terminal His tag: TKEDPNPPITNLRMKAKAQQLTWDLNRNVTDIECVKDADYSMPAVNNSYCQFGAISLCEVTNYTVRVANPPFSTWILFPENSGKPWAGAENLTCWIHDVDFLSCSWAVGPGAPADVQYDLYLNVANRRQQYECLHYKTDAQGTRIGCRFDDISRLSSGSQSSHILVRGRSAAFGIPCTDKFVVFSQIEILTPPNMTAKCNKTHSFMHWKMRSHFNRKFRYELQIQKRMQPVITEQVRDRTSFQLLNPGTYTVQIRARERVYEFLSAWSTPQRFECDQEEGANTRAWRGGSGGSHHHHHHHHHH
Procedure: (§3) The epitopes of single domain antibodies (sdAbs) that comprise VHH domains that bind CD123 were compared using Bio-Layer Interferometry. 5 ug/mL of histidine tagged human CD123 was immobilized on Nickel-nitrilotriacetic acid (Ni-NTA) coated capture sensors. 100 nM of one sdAb was then loaded onto the CD123 antigen and allowed to come to equilibrium. The sensors were then transferred into 100 nM of a second sdAb.

[3] = target: T1, human CD123 (full-length, on cells); assay: flow cytometry on HEK 293 cells transfected with full-length CD123; apparent Kd, one-site fit
Procedure: as §1, §2
Target sequence in this assay (P26951 19-378): as the sequence (P26951 19-378) above

[4] = target: T1, human CD123 (full-length, on cells); assay: flow cytometry blocking assay, sdAb titrated on CD123-expressing HEK-293 cells with a fixed amount of IL-3-mFc
Procedure: (§4) Certain CD123-binding sdAbs were tested for the ability to block CD123 binding to IL-3 by titrating the sdAb onto CD123 expressing HEK-293 cells in the presence of a fixed amount of recombinant IL-3-mFc. Bound IL-3 was detected by flow cytometry using fluorophore conjugated anti-mouse IgG specific secondary antibody.

[5] = target: T1, human CD123 (full-length, on cells); assay: as above; remark: listed apart in the source
Procedure: as §4

CD123-his [6] = target: T2, CD123-his; assay: BLI, CD123-his on Ni-NTA sensors preloaded with hzA5v2, second sdAb 100 nM
Procedure: as §3

[7] = target: T1, human CD123 (full-length, on cells); assay: flow cytometry, Molm-13 cells expressing CD123; Median RL1-H
Procedure: as §1, §2

[8] = target: T1, human CD123 (full-length, on cells); assay: flow cytometry on Molm-13 cells, which express CD123; apparent Kd, one-site fit; apparent Kd by flow cytometry on CD123-expressing cells; the places shown do not name the cell line for this sdAb
Procedure: as §1, §2

- EC50 (read off the curve) [1]: 2 to 3 nM
- binding result (CD123-his [2]): binds
- Kd [3]: 2.4 nM
B1: hz4F2v3-IgG1 (Fc fusion)
chain: EVQLVESGGGEVQPGGSLRLSCAASGRTVSNYPMAWFRQAPGKEREFVAHISWSGITSILNSVNDRFTISRDNAKNTIYLQMSSLRAEDTAVYYCAAAQRPTAGPKGPFGYWGQGTLVTVDKTHTCPPCPAPGGPSVFLFPPKPKDTLMISRTPEVTCVVVDVSHEDPEVKFNWYVDGVEVHNAKTKPREEQYNSTYRVVSVLTVLHQDWLNGKEYKCKVSNKALPAPIEKTISKAKGQPREPQVYTLPPSRDELTKNQVSLTCLVKGFYPSDIAVEWESNGQPENNYKTTPPVLDSDGSFFLYSKLTVDKSRWQQGNVFSCSVMHEALHNHYTQKSLSLSPGK
notes: also called hz4F2v3 sdAb

- IC50 (read off the curve) [4]: ~0.7 nM
- IC50 (read off the curve) [5]: ~2 nM
- EC50 (read off the curve) [1]: ~1 nM
- binding result (CD123-his [6]): binds
B2: C5-IgG1 (Fc fusion)
chain: QVTLRESGGGLVQAGGSLRLSCKGSGRAINTYAMGWFRQAPGKEREFVAAISWNGGHTRYADSVQGRFAISRDNADNTMYLQMNSLKPEDTAVYHCAAYSDYHRIATMEADADSWGQGTQVTVDKTHTCPPCPAPGGPSVFLFPPKPKDTLMISRTPEVTCVVVDVSHEDPEVKFNWYVDGVEVHNAKTKPREEQYNSTYRVVSVLTVLHQDWLNGKEYKCKVSNKALPAPIEKTISKAKGQPREPQVYTLPPSRDELTKNQVSLTCLVKGFYPSDIAVEWESNGQPENNYKTTPPVLDSDGSFFLYSKLTVDKSRWQQGNVFSCSVMHEALHNHYTQKSLSLSPGK
notes: also called sdAb C5

- EC50 (read off the curve) [7]: ~1 nM
- Kd [8]: 1.36 nM
B3: hz1F5v6-IgG1 (Fc fusion)
chain: EVQLVESGGGEVQPGGSLRLSCAASGRAINMYAMGWFRQAPGKEREFVAAINWNAAYTQYAESVKGRFTISRDNAKNTLYLQMSSLRAEDTAVYYCSADADYNTYVSPNKRVSYWGQGTLVTVKPDKTHTCPPCPAPGGPSVFLFPPKPKDTLMISRTPEVTCVVVDVSHEDPEVKFNWYVDGVEVHNAKTKPREEQYNSTYRVVSVLTVLHQDWLNGKEYKCKVSNKALPAPIEKTISKAKGQPREPQVYTLPPSRDELTKNQVSLTCLVKGFYPSDIAVEWESNGQPENNYKTTPPVLDSDGSFFLYSKLTVDKSRWQQGNVFSCSVMHEALHNHYTQKSLSLSPGK
